Source: patent US20250129150A1 (APOGEE THERAPEUTICS, published 2025)
Like-named read-outs stand apart in the source and are kept apart here.

T1: Recombinant Cynomolgus IL-13 Protein, His Tag (SINO BIOLOGICAL, Cat. 11057-C07H) (cynomolgus monkey, UniProt Q5I6E4 19-132 (Macaca thibetana entry))
T1 construct: also called Cyno IL-13; cynomolgus monkey IL-13
T1 chain: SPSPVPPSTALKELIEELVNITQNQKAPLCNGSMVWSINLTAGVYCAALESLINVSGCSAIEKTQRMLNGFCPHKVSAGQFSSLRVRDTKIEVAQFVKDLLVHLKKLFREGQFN

T2: recombinant human CD32a (167R) (human, UniProt P12318 36-218)
T2 sequence (looked up): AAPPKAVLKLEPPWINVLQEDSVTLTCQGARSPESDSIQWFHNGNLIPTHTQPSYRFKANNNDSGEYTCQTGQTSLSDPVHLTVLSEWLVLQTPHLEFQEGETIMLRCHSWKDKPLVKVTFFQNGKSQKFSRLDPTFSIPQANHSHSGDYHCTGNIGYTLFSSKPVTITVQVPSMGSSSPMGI

T3: recombinant human CD32b (human, UniProt P31994 46-217)
T3 sequence (looked up): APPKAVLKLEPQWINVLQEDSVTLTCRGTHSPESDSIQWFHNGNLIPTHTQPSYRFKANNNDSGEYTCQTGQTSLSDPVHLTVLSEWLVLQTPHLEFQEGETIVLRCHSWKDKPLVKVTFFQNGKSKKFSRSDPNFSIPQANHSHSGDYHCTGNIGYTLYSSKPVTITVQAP

B1: Construct 133 (antibody, human IgG1, kappa, L234A L235A)
heavy: EVQLQESGPGLVKPSETLSLTCTVSGFSLNAYSVNWIRQPPGKGLEWLGMIWGDGKIVYNSALKSRLTISKDSSKNQVSLKLSSVTAADTAVYYCAGDGYYPYAMDNWGQGTTVTVSSASTKGPSVFPLAPSSKSTSGGTAALGCLVKDYFPEPVTVSWNSGALTSGVHTFPAVLQSSGLYSLSSVVTVPSSSLGTQTYICNVNHKPSNTKVDKKVEPKSCDKTHTCPPCPAPEAAGGPSVFLFPPKPKDTLYITREPEVTCVVVDVSHEDPEVKFNWYVDGVEVHNAKTKPREEQYNSTYRVVSVLTVLHQDWLNGKEYKCKVSNKALPAPIEKTISKAKGQPREPQVYTLPPSRDELTKNQVSLTCLVKGFYPSDIAVEWESNGQPENNYKTTPPVLDSDGSFFLYSKLTVDKSRWQQGNVFSCSVMHEALHNHYTQKSLSLSPG
light: DIQLTQSPSSLSASVGDRVTITCRASKSVDSYGNSFMHWYQQKPGKAPKLLIYLASNLESGVPSRFSGSGSGTDFTLTISSLQPEDFATYYCQQNNEDPRTFGGGTKVEIKRTVAAPSVFIFPPSDEQLKSGTASVVCLLNNFYPREAKVQWKVDNALQSGNSQESVTEQDSKDSTYSLSSTLTLSKADYEKHKVYACEVTHQGLSSPVTKSFNRGEC
notes: also called HC1; LC6
B2: Construct 134 (antibody, human IgG4, kappa)
heavy: EVQLQESGPGLVKPSETLSLTCTVSGFSLNAYSVNWIRQPPGKGLEWLGMIWGDGKIVYNSALKSRLTISKDSSKNQVSLKLSSVTAADTAVYYCAGDGYYPYAMDNWGQGTTVTVSSASTKGPSVFPLAPCSRSTSESTAALGCLVKDYFPEPVTVSWNSGALTSGVHTFPAVLQSSGLYSLSSVVTVPSSSLGTKTYTCNVDHKPSNTKVDKRVESKYGPPCPSCPAPEFLGGPSVFLFPPKPKDTLYITREPEVTCVVVDVSQEDPEVQFNWYVDGVEVHNAKTKPREEQFNSTYRVVSVLTVLHQDWLNGKEYKCKVSNKGLPSSIEKTISKAKGQPREPQVYTLPPSQEEMTKNQVSLTCLVKGFYPSDIAVEWESNGQPENNYKTTPPVLDSDGSFFLYSRLTVDKSRWQEGNVFSCSVMHEALHNHYTQKSLSLSLGK
light: B1 light
notes: also called HC1; LC6
B3: Construct 136 (antibody, human IgG1, kappa, L234A L235A)
heavy: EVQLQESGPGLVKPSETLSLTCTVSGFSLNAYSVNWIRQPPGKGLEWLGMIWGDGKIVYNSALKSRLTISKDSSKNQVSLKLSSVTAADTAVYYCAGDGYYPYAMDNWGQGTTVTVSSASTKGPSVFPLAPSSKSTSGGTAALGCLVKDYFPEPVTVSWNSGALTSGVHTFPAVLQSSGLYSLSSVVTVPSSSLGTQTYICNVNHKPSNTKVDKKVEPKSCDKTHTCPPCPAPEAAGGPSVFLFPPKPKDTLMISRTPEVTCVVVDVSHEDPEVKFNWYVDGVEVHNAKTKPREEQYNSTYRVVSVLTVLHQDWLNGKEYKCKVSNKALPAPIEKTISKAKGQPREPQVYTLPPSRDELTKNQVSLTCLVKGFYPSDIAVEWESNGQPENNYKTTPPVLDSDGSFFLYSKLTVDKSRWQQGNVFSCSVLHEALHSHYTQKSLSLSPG
light: B1 light
notes: also called HC1; LC6
B4: Lebrikizumab (Construct 1) (antibody, human IgG4 S228P, kappa)
heavy: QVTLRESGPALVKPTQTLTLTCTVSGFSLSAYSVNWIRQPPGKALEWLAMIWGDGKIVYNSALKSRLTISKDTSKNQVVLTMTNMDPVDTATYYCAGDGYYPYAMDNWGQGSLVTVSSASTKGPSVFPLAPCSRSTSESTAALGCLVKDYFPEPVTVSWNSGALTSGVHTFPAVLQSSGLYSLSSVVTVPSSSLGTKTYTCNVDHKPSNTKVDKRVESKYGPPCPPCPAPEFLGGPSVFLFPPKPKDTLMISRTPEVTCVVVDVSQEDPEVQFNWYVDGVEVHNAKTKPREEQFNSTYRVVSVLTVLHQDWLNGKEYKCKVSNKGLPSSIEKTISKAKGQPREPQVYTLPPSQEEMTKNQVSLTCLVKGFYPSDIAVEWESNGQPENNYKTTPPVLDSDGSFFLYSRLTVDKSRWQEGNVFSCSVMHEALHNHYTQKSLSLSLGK
light: DIVMTQSPDSLSVSLGERATINCRASKSVDSYGNSFMHWYQQKPGQPPKLLIYLASNLESGVPDRFSGSGSGTDFTLTISSLQAEDVAVYYCQQNNEDPRTFGGGTKVEIKRTVAAPSVFIFPPSDEQLKSGTASVVCLLNNFYPREAKVQWKVDNALQSGNSQESVTEQDSKDSTYSLSSTLTLSKADYEKHKVYACEVTHQGLSSPVTKSFNRGEC
notes: also called Lebrikizumab-HC; Lebrikizumab-LC

How the values were obtained:
[1] = molecular target: T4, hIL-13 (human, UniProt P35225 35-146, limits assumed); assay: cell-based or functional assay
T4 sequence (P35225 other isoform, or with tags, fused parts or gaps limits assumed): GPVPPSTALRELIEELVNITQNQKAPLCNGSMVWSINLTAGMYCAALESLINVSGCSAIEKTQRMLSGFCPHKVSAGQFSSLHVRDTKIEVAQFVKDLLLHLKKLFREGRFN

[2] = molecular target: T4, hIL-13; assay: cell-based or functional assay; remark: listed apart in the source
[3] = molecular target: T5, Recombinant Human IL-13 Protein, His Tag (Acro Cat. IL3-H52H4) (human, UniProt P35225 35-146); assay: SPR (Biacore 8K), mAb captured on Protein G chip, IL-13 as analyte
T5 construct: Bought protein; also called Hu IL-13; not shown: His Tag
T5 sequence (P35225 other isoform, or with tags, fused parts or gaps limits assumed): as above
Description: Samples were injected in a multi-cycle manner over freshly captured mAb, by regenerating the capture surfaces with injection of glycine pH 1.5 for 30 sec at a flow rate of 30 μL/min. The data was processed and analyzed with Biacore Insight Evaluation Software Version 2.0.15.12933 (GE Healthcare) as follows. […] The responses from the two buffer blank injections were then subtracted from the reference subtracted data (2-1) to yield double-referenced data, which were fit to an 1:1 binding model to determine the apparent association (ka) and dissociation rate constants (kd). Their ratio provided the apparent equilibrium dissociation constant or affinity constant (KD=kd/ka).

[4] = molecular target: T6, recombinant human C1q (human, UniProt P02745 23-245; P02746 28-253; P02747 29-245, limits assumed); assay: SPR, antibody captured on anti-kappa chip, C1q as analyte; signal relative to rituximab
T6 construct: subunit composition is from general knowledge
T6 sequence (P02745 23-245 limits assumed, chain 1 of 3): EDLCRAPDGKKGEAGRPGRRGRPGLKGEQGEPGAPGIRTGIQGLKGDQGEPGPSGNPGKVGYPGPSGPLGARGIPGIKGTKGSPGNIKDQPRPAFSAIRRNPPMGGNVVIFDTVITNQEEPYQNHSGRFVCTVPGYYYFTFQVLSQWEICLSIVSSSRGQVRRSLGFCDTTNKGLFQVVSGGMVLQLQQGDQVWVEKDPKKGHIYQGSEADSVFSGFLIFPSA
T6 sequence (P02746 28-253 limits assumed, chain 2 of 3): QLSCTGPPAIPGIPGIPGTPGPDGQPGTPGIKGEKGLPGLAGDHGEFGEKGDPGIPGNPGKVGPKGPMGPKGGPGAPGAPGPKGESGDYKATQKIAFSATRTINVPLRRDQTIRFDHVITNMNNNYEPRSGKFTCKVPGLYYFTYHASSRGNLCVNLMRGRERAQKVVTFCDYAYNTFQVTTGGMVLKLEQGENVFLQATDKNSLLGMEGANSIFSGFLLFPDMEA
T6 sequence (P02747 29-245 limits assumed, chain 3 of 3): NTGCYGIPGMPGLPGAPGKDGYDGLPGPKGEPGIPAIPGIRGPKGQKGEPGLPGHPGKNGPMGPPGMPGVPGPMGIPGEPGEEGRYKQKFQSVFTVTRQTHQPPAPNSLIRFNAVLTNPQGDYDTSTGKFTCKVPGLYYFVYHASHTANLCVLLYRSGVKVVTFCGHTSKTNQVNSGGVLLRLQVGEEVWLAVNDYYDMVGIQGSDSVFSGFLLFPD
Description: (§1) Binding affinity (KD) of antibodies to Fc receptors and C1q were determined through surface plasmon resonance (SPR) using a Biacore 8K. Briefly, an SPR chip functionalized with an anti-kappa light-chain antibody was used to capture purified antibodies normalized to […], at a flow rate of 10 uL/min for 90 seconds or 120 seconds. A paired channel with only buffer was used as reference. Subsequently, varying concentrations of recombinant human CD32a (167H), CD32a (167R), CD32b, CD16a (176V), CD16a (176F), FcRn, CD64, and C1q were injected over the surface with captured purified antibody as well as the reference channel. Regeneration of the chip between different concentrations of different antigens were performed with 10 mM Glycine HCl, pH 1.5 and antibody was again captured. Association and dissociation rate constants were subsequently determined through fitting to a 1:1 Langmuir binding model or steady-state analysis model, whichever applicable, using the Biacore Insight Evaluation Software from which a KD value was derived.

[5] = molecular target: T4, hIL-13; assay: cell-based or functional assay; remark: listed apart in the source
[6] = molecular target: T1, Recombinant Cynomolgus IL-13 Protein, …; assay: SPR (Biacore 8K), mAb captured on Protein G chip, IL-13 as analyte
Summary of the method: (§2)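 Antigen injected multi-cycle over freshly captured mAb; surfaces regenerated with glycine pH 1.5 for 30 sec. Double-referenced sensorgrams fit to a 1:1 binding model for apparent ka and kd; KD = kd/ka.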

[7] = molecular target: T5, Recombinant Human IL-13 Protein, His …; assay: as above; remark: listed apart in the source
Summary of the method: as §2

[8] = molecular target: T2, recombinant human CD32a (167R); assay: SPR, antibody captured on anti-kappa chip, recombinant human receptor as analyte
Description: as §1

[9] = molecular target: T3, recombinant human CD32b; assay: as above
Description: as §1

[10] = molecular target: recombinant human CD16a (176V) (human, UniProt P08637 17-208); assay: as above
recombinant human CD16a (176V), sequence (P08637 17-208 F176V): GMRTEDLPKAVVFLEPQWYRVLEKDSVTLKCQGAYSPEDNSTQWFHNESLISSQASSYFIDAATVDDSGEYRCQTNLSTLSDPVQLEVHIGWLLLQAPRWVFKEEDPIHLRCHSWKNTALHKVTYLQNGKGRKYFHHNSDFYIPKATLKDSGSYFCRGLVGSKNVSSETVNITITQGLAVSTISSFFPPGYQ
Description: as §1

[11] = molecular target: recombinant human CD64 (human, UniProt P12314 16-288); assay: as above
recombinant human CD64, sequence (P12314 16-288 limits assumed): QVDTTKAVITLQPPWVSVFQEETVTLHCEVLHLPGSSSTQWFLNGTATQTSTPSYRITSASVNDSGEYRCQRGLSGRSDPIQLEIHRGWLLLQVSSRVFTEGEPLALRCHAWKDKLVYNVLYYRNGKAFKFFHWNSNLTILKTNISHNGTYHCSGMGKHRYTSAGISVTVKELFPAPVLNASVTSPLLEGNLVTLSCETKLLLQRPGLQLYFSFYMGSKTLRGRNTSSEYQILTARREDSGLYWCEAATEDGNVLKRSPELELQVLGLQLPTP
Description: as §1

[12] = molecular target: T7, recombinant human FcRn (human, UniProt P55899 24-297; P61769 21-119); assay: SPR, antibody captured on anti-kappa chip, FcRn as analyte, pH 5.8; pH 5.8
T7 construct: also called neonatal Fc receptor
T7 sequence (P55899 24-297 limits assumed, chain 1 of 2): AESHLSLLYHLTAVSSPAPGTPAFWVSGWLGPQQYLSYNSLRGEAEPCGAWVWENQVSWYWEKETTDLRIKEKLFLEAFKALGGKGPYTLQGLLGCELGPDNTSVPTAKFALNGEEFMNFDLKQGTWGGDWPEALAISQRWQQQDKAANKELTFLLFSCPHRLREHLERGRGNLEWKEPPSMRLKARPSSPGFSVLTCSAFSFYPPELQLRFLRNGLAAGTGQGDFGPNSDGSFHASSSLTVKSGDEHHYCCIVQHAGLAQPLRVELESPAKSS
T7 sequence (P61769 21-119 limits assumed, chain 2 of 2): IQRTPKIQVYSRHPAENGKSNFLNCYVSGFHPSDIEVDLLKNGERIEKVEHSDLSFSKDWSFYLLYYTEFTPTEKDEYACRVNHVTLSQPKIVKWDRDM
Description: as §1

[13] = molecular target: T4, hIL-13; assay: cell-based or functional assay; remark: listed apart in the source
[14] = molecular target: T4, hIL-13; assay: cell-based or functional assay; remark: listed apart in the source
[15] = molecular target: T4, hIL-13; assay: ELISA
[16] = molecular target: T4, hIL-13; assay: cell-based or functional assay; remark: listed apart in the source
[17] = molecular target: biotinylated hIL-13 (human, UniProt P35225 35-146, limits assumed, biotinylated (site not stated)); assay: FACS; blockade of biotinylated hIL-13 (0.05 ug/mL) binding to HEK293 cells expressing hIL-13Rα1/hIL-4Rα
biotinylated hIL-13, sequence (P35225 other isoform, or with tags, fused parts or gaps limits assumed): as the sequence (P35225 other isoform, or with tags, fused parts or gaps limits assumed) above
Summary of the method: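 HEK293 cells stably co-expressing hIL-13Rα and hIL-4Rα (200,000/well) stained at 4 °C for 1 h, then a further 1 h at 4 °C in the dark. Median fluorescence intensity read by flow cytometry.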

[18] = molecular target: T4, hIL-13; assay: cell-based or functional assay; remark: listed apart in the source

Binder	CCL2 Secretion IC50 (HaCaT cells) [1] [nM]	CCL26 Secretion IC50 (HaCaT cells) [1] [nM]	NTRK1 Expression IC50 (HaCaT cells) [1] [nM]	pSTAT6 Inhibition IC50 (HT-29 cells) [2] [nM]	C1q (Signal Relative to Rituximab) [4] [%]	Kd [6] [nM]	Kd [7] [nM]	binding result [8]	binding result [9]	binding result [10]	binding result [11]	Kd [12] [nM]	TF-1 Proliferation Inhibition IC50 [13] [nM]	TARC Inhibition IC50 (A549 cells) [14] [nM]	Kd [15] [nM]	CD23 Expression Inhibition IC50 (human PBMCs) [16] [nM]	pSTAT6 Inhibition IC50 (human PBMCs) [16] [nM]	IC50 [17] [nM]	Kd [8] [nM]	Kd [9] [nM]	further results
B1	0.077	0.06	0.062	0.28	15.9	0.208	0.0777	no binding	no binding	no binding	no binding	150	0.15	0.86	0.019	0.85	0.44	0.89			Kd [3]: 0.077 nM; TF-1 Proliferation Inhibition IC50 [5]: 0.16 nM
B2				0.2	25.3	0.33	0.105			no binding		160	0.18	0.99	0.05			1.08	8140	8620	Kd [11]: 2.8 nM
B3	0.074	0.052	0.053	0.3	25.4	0.161	0.0698	no binding	no binding		no binding	90	0.15	0.89	0.018			1.02			Kd [10]: 4670 nM
B4	0.076	0.055	0.056	0.23		0.309	0.131					1060	0.2	0.74		0.81	0.38	1.11	2380	2930	Kd [11]: 1.12 nM; TARC Release IC50 (A549 cells) [18]: 0.9 nM
